PMC10350818 (The EMBO Journal, 2023)

Tests used:
Assay in all cases: pull-down; GST pull-down with purified GST or GST-p37 as bait, p97 variants and SPI or SPI variant, in the presence of ATP; Western blot
Settings in all cases: both partners purified
[1] = target: T1, His-tagged p97 G54K (human, UniProt P55072 2-806, G54K)
T1 construct: p97 (VCP), human, point mutation in the N-domain groove; source: generated in bacteria, purified

[2] = target: T2, His-tagged p97 Y143A (human, UniProt P55072 2-806, Y143A)
T2 construct: p97 (VCP), human, point mutation in the N-domain groove; source: generated in bacteria, purified

[3] = target: T3, His-tagged p97 (from bacteria), wild type (human, UniProt P55072 2-806)
T3 construct: p97 (VCP), human; Wild-type p97 of the GST pull-down assays; also called VCP; source: generated in bacteria, purified

Measured: binding result

T3 sequence (P55072 2-806): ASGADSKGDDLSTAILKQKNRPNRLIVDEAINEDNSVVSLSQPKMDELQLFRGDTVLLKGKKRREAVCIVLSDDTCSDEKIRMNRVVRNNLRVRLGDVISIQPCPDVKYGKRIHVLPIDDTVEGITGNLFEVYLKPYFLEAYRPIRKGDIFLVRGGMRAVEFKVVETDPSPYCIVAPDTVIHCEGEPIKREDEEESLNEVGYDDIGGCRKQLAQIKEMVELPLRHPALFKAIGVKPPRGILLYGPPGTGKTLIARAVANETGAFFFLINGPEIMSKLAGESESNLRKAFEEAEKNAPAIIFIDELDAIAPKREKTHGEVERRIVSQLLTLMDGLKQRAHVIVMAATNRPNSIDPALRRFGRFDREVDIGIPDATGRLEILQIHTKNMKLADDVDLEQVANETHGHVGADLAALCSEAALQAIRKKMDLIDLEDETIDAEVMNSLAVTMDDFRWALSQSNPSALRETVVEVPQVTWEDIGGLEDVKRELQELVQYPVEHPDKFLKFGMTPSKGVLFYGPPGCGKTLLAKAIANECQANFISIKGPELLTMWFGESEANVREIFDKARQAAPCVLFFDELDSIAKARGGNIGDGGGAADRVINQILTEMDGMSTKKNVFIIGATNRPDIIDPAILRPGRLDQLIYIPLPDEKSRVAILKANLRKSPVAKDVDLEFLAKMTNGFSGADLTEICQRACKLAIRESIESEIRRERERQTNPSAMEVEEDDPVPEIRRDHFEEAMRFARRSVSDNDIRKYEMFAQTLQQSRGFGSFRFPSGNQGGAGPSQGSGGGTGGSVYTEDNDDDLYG
T1 sequence (P55072 2-806 G54K): as the sequence (P55072 2-806) above, with G53K counted along it
T2 sequence (P55072 2-806 Y143A): as the sequence (P55072 2-806) above, with Y142A counted along it

B1: GST-p37 (natural protein, human, UniProt Q14CS0 1-331, looked up)
chain: MAEGGGPEPGEQERRSSGPRPPSARDLQLALAELYEDEVKCKSSKSNRPKATVFKSPRTPPQRFYSSEHEYSGLNIVRPSTGKIVNELFKEAREHGAVPLNEATRASGDDKSKSFTGGGYRLGSSFCKRSEYIYGENQLQDVQILLKLWSNGFSLDDGELRPYNEPTNAQFLESVKRGEIPLELQRLVHGGQVNLDMEDHQDQEYIKPRLRFKAFSGEGQKLGSLTPEIVSTPSSPEEEDKSILNAVVLIDDSVPTTKIQIRLADGSRLIQRFNSTHRILDVRNFIVQSRPEFAALDFILVTSFPNKELTDESLTLLEADILNTVLLQQLK
notes: Bait of the GST pull-down assays; source: generated in bacteria, purified
binds: all assays above
